In the domain aggregation screens of Martell et al. (2025):

Test: soluble fraction after stress (log2 fold change); higher = more stays soluble; pooled small domains, quantitative proteomics
Conditions: stress: 50 degC
Method in brief: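 After stress at 50°C, the amount of each protein still soluble was measured. This was done on pooled custom libraries of small protein domains, using high-throughput quantitative proteomics. The figure given is a base-two log fold change and stands for aggregation propensity, with higher values meaning more protein stays in solution.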

Row | Sequence | soluble fraction (log2)
1 | HMSINIDEEKKILGPNADQIIKGITTWGQGLVSKGIWSDADFEEFKIFAATGNGINALNKVRKYY | -0.255
2 | HMSTMLPFVMRELVELVMKKKALPLGDALYYIYSSKLYKSLLDKSTKLWYSSTLSLYETLEKEKTEEKRRY | -1.79
3 | HMDYEVPEELQQKFEEFPRLKEAFYQLTPGRQHQYLYYFSQAKRSQTRYNRIDKYMNAILQGKGMK | -0.991
4 | HMGSALLEAGADDAGQRLDQWLAAKLGPSISRSRVQALIKQGAVLVGGKPAGEAKRKLVAGDVVSVALPEP | 0.0853
5 | HMAVSNWQKLVSSIQTQLKILALYHGPEDGIYGPNTRSAIMLYEENIGLPVTGEPSRELLAHMLDQTD | -0.869
6 | HMRQIMIIVLKSTATKEDSLLFKNKLEQEYGVKVNEWTGVESTVLGLIGDTTKIDIDYISAQDIVESVKRV | 0.252
7 | HMNQTPQISYSQFIADVRSGQIKDVNIDSDNRTIVGHKFSGEEFTTFSPGDNKLVDELLNYNVEIKTSP | 0.411
8 | HMGDADDLTRIKGIGPKLSKTLNELGIYHFRQIAGWQSDEADWVDDYLSFKGRVMREQWIEQAQKFAS | -0.392
9 | HMTKTEFLNLLEQRLFVLNDNERADLLSEYKQHIEMKIQSGLSEEEAIADFGDPEELIKELLEAY | -0.33
10 | HMRAAFEHLTIGQTVSGLVKSQARGVSLVEIEGQTVAMRLPQPVAVGDTLRLRFAGHMPQPVFLLDT | -0.132
11 | HMRLADHVVEKLLALVQERGLQPGQKLPAERQLAEVLGVSRTSVREAIQKLVSQGVLSARRGDGTYVQS | 0.00808
12 | HMQVLLTRREKEILKLIAEGLTSAEIGKRLFISTTTVDTHRKHLLEKLKAGNTAILIKTAVQLDLI | -1.26
13 | HMHTSEDLEKLLTRYFQSHESINRQQFEQLSGFTRTTASRRLKALVEAGKLKNIGLHHFPVYKPTEGNF | -0.354
14 | HMDASKVKIEDLGLSTRTENALVAASIRTAGGLARKSEMDLLSTDGLGEKGITEIKKALSDLGLELK | 0.285
15 | HMAMNITQRHQEILAVIKQEKHITVSEISKLLGVSEVTIRKDFNYLEEKNLIYRHHGGASLNN | -1.58
16 | HMRIEDTMDYINKIKEKLKNNGGVITSKEFTRSNIPTIYLTRMVETGELIRIDRGIYINSSG | -0.538
17 | HMGLTLREKMGHVLEMLKGREFLPFVSLFTVEEGRIGVVVTFMSILELVKEGILDLVQTESFGPIHVKAR | -0.326
18 | HMPEPAPALPAKTRVSIRRETGGIIWHEGAWTISPPIRAYDGRWYVAVTTARKGIEFVPVSSVIRS | -1.07
19 | HMNGGPHYLRDVRTSLGLSQADLAKAVGTSANMIHYLESGERALTLKWIRRISEALNVSPMRLIN | -1.6
20 | HMDVQGFVMDLDKPLDKEPIVEGFELKLEDSLTLVAAVNKDKSINSLFDELSKLGIKVKSMRNPP | -0.0252
21 | HMAEMLQDVLNMLSAKDREILVRYYYYYESVKQVAAEMQMSESAVKMRMSRARKKMQQELIDKG | -3.59
22 | HMGIKYTNQRVEILNFLKDNLSHPTVDDVYEGVKKKLTRISKATVYQNLKFLASKGLIQEVNIKGVSRFEP | -1.32
23 | HMRTNNEITSYKLKSGKKRWKFQTYLGLDDKGQKVSVTRQGFRTYNEAISEYNKLRAQGTQGYQ | -0.355
24 | HMSRQDYLQTIYRLSVGKGYTTNKKIADFLSVSKPSVTEMIGKLQGEGLVAMDGAHIFLTEDGAEQ | -0.567
25 | HMAFAQMAQEAAKGKDDFNDLRQEMEAVIKEQPHILLMAQFGQNPYEIAYQEAKRRKAQDQQQQQ | 0.288

Row | Sequence | soluble fraction (log2)
26 | HMFTEIMAERNALIQAIQQNLPPQHIQSILSKKNKFRLEDLTNEELRDVWQWILNQRQAQQHQQQ | -0.171
27 | HMSYLDTLPGRRVAAQGAITGDAGTLAVDGDTWSARVEPGAPDVAPGDEVTVLRIDGATLVVRPLP | -0.0478
28 | HMKKEETEAEELEEKFTSAQIKQAYGILNDPRYKQGNYSGAVNVINKIAPGLADHPDVKNALKRANEEL | 0.0375
29 | HMSSEPASLVGKTGVAASVLRPSGRVEVNGEYYDAVSINGFIEKGESVFVHKYENAQLYVSKNSE | 0.0445
30 | HMVSDAWITGKVKSQLLADDVTPGMKIDVDTEDRIVSLKGTVPSLTARNEAIRIASHTKGVRTVDADELIV | 0.118
31 | HMRIHKQLGDRIRNLRLSSGMNQEELAFKSGISAAHLGQIERGLKSPTISTIQKIAKALNVTLPILF | -0.298
32 | HMERDIATKHEVNRTVEAYSDIVKTLNLPSHKINLVEISFFNILKRSKPSPRENSILLGLAQKIKLHLEKK | -0.477
33 | HMSEVPAAVLVTGGSINLREAPSTDATIIDVAQVGEKMTVLAEKNSWYQVSRGGRNVWVASWVVDPLT | 0.208
34 | HMGAIVTVPDLAGRPQPGAEAELRRSGLVPKVRTSYSLTGTRGTVISQTPPAGSRVREGAEVEVVVSRGLN | 0.0922
35 | HMDHAHWEEHEVKLLLTLAIQEKEKFNWNQFGLTREGWRNIYPHFPQYSRKQINNKFDFLKQKYRAWKDS | -1.84
36 | HMGRMSLDEAKAVILPIGEHKGHTMGEVLAIKPGLIDFYASQKFNSGKYPYLKEAAQVILENQG | -0.109
37 | HMKDITMPNVYGLTLEMAEQTLKQSELSIFKAMKINSDTVEEGKVIYTDPKANSIVSGDQEITIYVSDGP | 0.0645
38 | HMGVPTEQEIGKRILAWRKLRGMTLQQLADKAGVGLTTIHNLETGLWYAKMPTYLYIAEALGVSLDALIYG | -1.42
39 | HMETISEIWRLIDGLDEIYRVPLTMYYRSNRSVREIAETLGLSARTVETRIYRARRMIREKWSN | -2.23
40 | HMEFLDQAFLHETMRKVNQDATINLLKKVYEVPQKFIGRKVTVQYDPEDLSRVYVKDLSFPEPVTVYPV | -0.0595
41 | HMFSMKDFGQRLRQLRKERGLTQGDLARLAKIDIMQVSRYERGLGLPSLETAIALARVLETSTDLLFLG | -1.46
42 | HMEPREALDGLISERGETYASISRLLGRNSAYIQQFIKRGSPARLDQSDIALLALHFDVPVEMLGGKE | -0.42
43 | HMSNGYVTAKTTVNVRKSASESGERLGVIYQGDKLELVMNQADGWTKVKYKGQTAYVKSEFM | -0.6
44 | HMSVKLMEVKGASTVVSRQVREAVSIVFPTSSMRLDLVALKARIEGVDAVKRADVYLRNGILEIQIDER | -1.99
45 | HMAKNIEVPNLVGSTISVARNDLKQLGLHVIVRDSVWSEDKKIDTILEQFPEPGKKLKPEGVVQVVVSI | -0.408
46 | HMRHSLAAALTELRRLAALDLGDFFRFEYVSHTDSLGGKQQAYTEGIRVSFGVYLGVNKKDRLNVDPVV | -3.44
47 | HMADEGFRQTVLAVLARWESKIHHGQYNALKAKVMNGNWSSFVKQVVKFQGKFIHPDAAKELLGLFG | -0.0749
48 | HMKSNIIPLSLKKPQRLDIFLTNYFVDLSRTQIKKMITDGNIKVNDLIAKPSLKLIGDEIIFYTLPK | -1.24
49 | HMEQRREEFILLAKELLEKELRKQNLEVHENLKPDVLNDVAKRLGMVSMDDLLAAVGDGKITPGTVVSKIV | 0.064
50 | HMGHLTWTVTGIGHERRARTVAEQMSSVFGVLEARASSAGTVYLEFEREKIDEGGLEASLKRMGVTRVV | -1.71

Row | Sequence | soluble fraction (log2)
51 | HMVLENLKKFIDSKGISVSAFEKSIGMSNNSFRKSLNSGGHIGSDKLENILKIYPELNPVWLLQGEGEML | -0.27
52 | HMTKDEFLTTLRTLIQDMPPEDRRDVMNYYTEYFEDAGPEREQEVLRQLGSPEQVAREVLGG | -0.0225
53 | HMDTHDVQVPQEGQGLRLDLFLTDHIEGSRSFIQTIIKDGHVILNGKKAKANSRLNEGDYVVWSIPKPE | -0.0683
54 | HMTNIDRLIGQTAIVKETINNKKEQGVVRINGMDWTARTEEIDEVILKGKPVEILDIQGIKLIVRKK | -0.153
55 | HMSQTDQALRHLIREAWATLPQRQQQAVELAYYEGLPDTEIAARLNQPVEEVKTSIVLGMAHLREALHSY | -0.583
56 | HMSQDEVVADMKADLGPDADNIIRSNIQWADGLVRKGILTESEREELDVMGGTPEAQRILVKLRTMQG | 0.0777
57 | HMDAAEVEATARAMLRRSALNLLAQREQTAFELKQKLSRRFPEQAALLDEVIERLQEQGLQDDTR | -0.102
58 | HMGEGIRIDSTAVVQVGEKMYAYLGGDGFSKEFWTNLPASGELAVTLKFEPIPMDAESLDFYEMPA | 0.0315
59 | HMAQKQLYIAGTDYTKNSTSQLVLAYFPAKPSSIKIFFDGIYQNKDKWSLFGKTIIFGLPISSNAVEVHYE | -2.1
60 | HMSQVSTKYINVSSAYVRSKPSKDGEIVTSLIKNTDVTVTGENGDWYKIKFNNYEGYIFKELLSDSKLEE | 0.15
61 | HMTTVSINTTGIITASTIRASSALYPPLYTTVQRDAGTFSAGAIIFNSTTSKLEFYDGTTWQSLPG | -0.106
62 | HMEPVTETVYAMDTVNIRAAADQTSEKIGSVTVGTALTRTGTDGDWSIIDYNGTTGYVKSEFLSNTAPEV | -0.00262
63 | HMKHYIDFIAEQLKTLTAIPSPSGYTKNATDYLMKLLQDMGYEPKLSRKGNVFVTLGGDGEPLVLAAHVD | -0.114
64 | HMQVEYTRGELIQDLEGGKIVYAGISPSRETPTGEVNFILDSGLTRTLYVTDVSEIEQLLISYDIDPEVKK | -0.0036
65 | HMPTPASGSSGYINATNVNFRTGPATSYKSISKLAKNTAVTILGTSGNWYKVTVGSLGKNGYVFATYVTVS | -0.556
66 | HMGDLDLVTFGQRLRHLRRSRNMTLSELGERVGRAPSQLSLLENGKREPKLSLLTALAKALDVSVEEL | -0.75
67 | HMPMIQHFHRMISAALGISEKQIVQTLGLLNDGATIPFISRYRKEVTGGLDEVQIESIKTHYEKLNEIAK | -1.52
68 | HMDESLIEEAKAMILQMKIEGSVRVRSNGLLEFRNPLFGSVYGRSVEELQEKLNKKVREQKSRI | -0.0459
69 | HMPLQKNRPKIKPQKVVFLFSVEWMWSPAHNRIDSYFINIKPSRYYLWNSFFDRHSFSDYWDFIGYTEN | -0.0868
70 | HMLAVSVDKDGKVYIQDSETAVDAVTAKLRAISGNNSEIRIFVRGDADVNYGRIMEIMGVINAAGFRKVAL | -0.467
71 | HMGKAMIDWEREQSILRILLRQKALTTEQAREVYQDGMREDLSALEMGVQRGYFTHEQLREATGGE | 0.0179
72 | HMIMQTTSDRINQRMRDLGLQHKDLVAATGASKGTVTNWINGVNNPTGKRLVQLAQALKTTSSWLLTGN | -0.12
73 | HMEVSYSLPRFHKGKNPYVDFYQVDPRTLRMRRKKFLLRGVRDAVLLEQRAADLVALLTERLHSGWNAWDD | -2.11
74 | HMDVRLAKVYMLPANPYLRFIEFDDGTHGKFRAKPGKFGLGSVVKVKREDGDMYTLEGNYDGKDRL | -0.555
75 | HMDPEIADAVNTIKKYLESHYSEVITRKKIEELVHLNQDHINREFKKQTGYTLMEYVQHYRILMAKKMLRV | -0.243
